The text below walks through data of patent US20080242608A1 (published 2008).

B1: Endogenous FOXO3 (293T cells) (other, UniProt O43524 1-673, looked up)
chain: MAEAPASPAPLSPLEVELDPEFEPQSRPRSCTWPLQRPELQASPAKPSGETAADSMIPEEEDDEDDEDGGGRAGSAMAIGGGGGSGTLGSGLLLEDSARVLAPGGQDPGSGPATAAGGLSGGTQALLQPQQPLPPPQPGAAGGSGQPRKCSSRRNAWGNLSYADLITRAIESSPDKRLTLSQIYEWMVRCVPYFKDKGDSNSSAGWKNSIRHNLSLHSRFMRVQNEGTGKSSWWIINPDGGKSGKAPRRRAVSMDNSNKYTKSRGRAAKKKAALQTAPESADDSPSQLSKWPGSPTSRSSDELDAWTDFRSRTNSNASTVSGRLSPIMASTELDEVQDDDAPLSPMLYSSSASLSPSVSKPCTVELPRLTDMAGTMNLNDGLTENLMDDLLDNITLPPSQPSPTGGLMQRSSSFPYTTKGSGLGSPTSSFNSTVFGPSSLNSLRQSPMQTIQENKPATFSSMSHYGNQTLQDLLTSDSLSHSDVMMTQSDPLMSQASTAVSAQNSRRNVMLRNDPMMSFAAQPNQGSLVNQNLLHHQHQTQGALGGSRALSNSVSNMGLSESSSLGSAKHQQQSPVSQSMQTLSDSLSGSSLYSTSANLPVMGHEKFPSDLDLDMFNGSLECDMESIIRSELMDADGLDFNFDSLISTQNVVGLNVGNFTGAKQASSQSWVPG

Assay [1] addresses T1, protein kinase MLK3 (endogenous, 293T cells) (UniProt Q16584 1-847).
T1 construct: Negative control in the co-immunoprecipitation of endogenous FOXO3
The experiment in a line: co-IP from 293T lysates with rabbit FOXO3 antibody, MLK3 immunoblot.

For assay [2], the target named is B1. Description: co-IP from 293T lysates with rabbit FOXO3 antibody, MST1 immunoblot.

T1 sequence (Q16584 whole entry): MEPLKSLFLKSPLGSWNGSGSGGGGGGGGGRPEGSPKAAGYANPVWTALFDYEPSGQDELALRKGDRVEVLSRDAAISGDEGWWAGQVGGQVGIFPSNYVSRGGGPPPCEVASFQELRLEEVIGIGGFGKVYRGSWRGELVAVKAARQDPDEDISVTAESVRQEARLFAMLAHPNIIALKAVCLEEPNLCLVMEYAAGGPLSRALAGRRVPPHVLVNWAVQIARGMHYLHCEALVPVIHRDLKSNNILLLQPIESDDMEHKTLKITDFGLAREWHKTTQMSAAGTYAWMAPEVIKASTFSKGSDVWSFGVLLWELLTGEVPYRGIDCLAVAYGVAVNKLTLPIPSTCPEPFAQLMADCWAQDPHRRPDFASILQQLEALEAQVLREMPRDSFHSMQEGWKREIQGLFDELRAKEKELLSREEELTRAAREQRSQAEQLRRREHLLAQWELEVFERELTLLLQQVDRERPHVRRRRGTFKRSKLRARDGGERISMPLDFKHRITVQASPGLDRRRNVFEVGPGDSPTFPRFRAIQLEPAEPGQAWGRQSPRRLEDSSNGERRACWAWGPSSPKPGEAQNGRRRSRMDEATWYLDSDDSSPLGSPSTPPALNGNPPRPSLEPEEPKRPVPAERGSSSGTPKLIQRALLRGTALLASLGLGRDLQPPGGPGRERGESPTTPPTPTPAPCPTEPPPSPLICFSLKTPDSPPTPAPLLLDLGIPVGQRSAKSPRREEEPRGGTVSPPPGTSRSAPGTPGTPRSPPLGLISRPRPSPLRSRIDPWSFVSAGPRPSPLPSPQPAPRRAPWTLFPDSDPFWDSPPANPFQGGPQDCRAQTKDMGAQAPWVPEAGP

B1: in assay [1], the binding result was “no binding”.

B2: Endogenous MST1 (293T cells) (enzyme, UniProt Q13043 1-487, looked up)
chain: METVQLRNPPRRQLKKLDEDSLTKQPEEVFDVLEKLGEGSYGSVYKAIHKETGQIVAIKQVPVESDLQEIIKEISIMQQCDSPHVVKYYGSYFKNTDLWIVMEYCGAGSVSDIIRLRNKTLTEDEIATILQSTLKGLEYLHFMRKIHRDIKAGNILLNTEGHAKLADFGVAGQLTDTMAKRNTVIGTPFWMAPEVIQEIGYNCVADIWSLGITAIEMAEGKPPYADIHPMRAIFMIPTNPPPTFRKPELWSDNFTDFVKQCLVKSPEQRATATQLLQHPFVRSAKGVSILRDLINEAMDVKLKRQESQQREVDQDDEENSEEDEMDSGTMVRAVGDEMGTVRVASTMTDGANTMIEHDDTLPSQLGTMVINAEDEEEEGTMKRRDETMQPAKPSFLEYFEQKEKENQINSFGKSVPGPLKNSSDWKIPQDGDYEFLKSWTVEDLQKRLLALDPMMEQEIEEIRQKYQSKRQPILDAIEAKKRRQQNF
Turning to B2, the binding result in assay [2] was “binds”.
